According to article PMC4459711:
Where two headings read alike, the source gives them in different places.

Columns and labels:
Assay in all cases: X-ray crystallography
[1] = target: T1, L1750 (LACV L protein, residues 1-1750) (La Crosse virus (strain …, UniProt A5HC98 1-1750))
[2] = target: T1, L1750 (LACV L protein, residues 1-1750); remark: listed apart in the source
[3] = target: T1, L1750 (LACV L protein, residues 1-1750); remark: listed apart in the source

T1 sequence (A5HC98 1-1750): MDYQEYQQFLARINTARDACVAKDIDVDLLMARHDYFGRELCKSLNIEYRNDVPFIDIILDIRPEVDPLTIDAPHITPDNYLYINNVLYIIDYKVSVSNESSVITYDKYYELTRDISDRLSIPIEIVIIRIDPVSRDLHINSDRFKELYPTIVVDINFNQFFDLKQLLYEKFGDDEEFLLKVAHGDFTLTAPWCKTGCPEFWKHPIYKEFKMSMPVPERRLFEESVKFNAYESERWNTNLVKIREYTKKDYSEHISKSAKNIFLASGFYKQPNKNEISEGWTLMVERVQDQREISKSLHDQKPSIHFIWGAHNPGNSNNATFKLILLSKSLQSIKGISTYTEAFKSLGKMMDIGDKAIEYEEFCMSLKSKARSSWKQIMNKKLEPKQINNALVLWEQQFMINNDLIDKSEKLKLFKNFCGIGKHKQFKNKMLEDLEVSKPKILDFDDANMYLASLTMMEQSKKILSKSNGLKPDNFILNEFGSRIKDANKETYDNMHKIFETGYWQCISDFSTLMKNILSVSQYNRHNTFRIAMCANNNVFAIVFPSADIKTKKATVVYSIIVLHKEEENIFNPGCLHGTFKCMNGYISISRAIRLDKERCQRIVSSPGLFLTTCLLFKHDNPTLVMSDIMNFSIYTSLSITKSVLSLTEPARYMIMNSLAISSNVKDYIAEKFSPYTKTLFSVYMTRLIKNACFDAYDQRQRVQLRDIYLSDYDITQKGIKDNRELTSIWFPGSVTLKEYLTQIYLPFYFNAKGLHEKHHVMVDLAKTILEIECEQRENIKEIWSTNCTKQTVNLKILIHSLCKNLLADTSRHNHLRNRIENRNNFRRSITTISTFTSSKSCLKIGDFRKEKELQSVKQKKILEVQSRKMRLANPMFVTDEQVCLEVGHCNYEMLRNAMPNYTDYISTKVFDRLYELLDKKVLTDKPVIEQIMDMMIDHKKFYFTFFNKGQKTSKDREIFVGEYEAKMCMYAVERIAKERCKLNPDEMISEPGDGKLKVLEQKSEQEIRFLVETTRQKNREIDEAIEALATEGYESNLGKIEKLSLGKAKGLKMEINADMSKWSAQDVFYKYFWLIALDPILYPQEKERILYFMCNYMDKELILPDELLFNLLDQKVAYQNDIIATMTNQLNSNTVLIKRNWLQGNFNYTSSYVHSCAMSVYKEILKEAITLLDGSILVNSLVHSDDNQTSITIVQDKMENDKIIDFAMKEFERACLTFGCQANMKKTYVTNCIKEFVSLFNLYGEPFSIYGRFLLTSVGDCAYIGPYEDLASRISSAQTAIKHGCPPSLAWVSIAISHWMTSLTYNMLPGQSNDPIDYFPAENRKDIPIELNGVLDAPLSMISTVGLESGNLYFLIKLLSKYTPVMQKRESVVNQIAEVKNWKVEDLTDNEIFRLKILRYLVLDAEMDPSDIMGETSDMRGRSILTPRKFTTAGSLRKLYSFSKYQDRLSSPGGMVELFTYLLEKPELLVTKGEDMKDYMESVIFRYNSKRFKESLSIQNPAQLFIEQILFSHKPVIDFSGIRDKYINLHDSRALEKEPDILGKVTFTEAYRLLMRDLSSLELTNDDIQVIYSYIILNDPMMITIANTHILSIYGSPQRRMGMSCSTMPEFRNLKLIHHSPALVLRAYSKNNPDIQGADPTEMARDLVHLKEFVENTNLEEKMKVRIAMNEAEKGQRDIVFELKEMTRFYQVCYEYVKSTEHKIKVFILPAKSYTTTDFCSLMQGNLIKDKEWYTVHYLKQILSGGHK

B1: 5' vRNA 1-10 (hook) (structured_RNA)
RNA: AGUAGUGUGC
modifications: 5' phosphate
B1: binds [1].

B2: 3' vRNA 1-16 / 5' vRNA 9-16 partial duplex (mixed)
RNA 1: UUGGUAGUACACUACU
RNA 2: GCUACCAA
B2: binds [2].

B3: 5' vRNA 1-11 (structured_RNA)
RNA: AGUAGUGUGCU
B3: binds [3].
